This sample holds only a part of the variants without activity.
Columns and labels:
[1] = test system: biotinyl-Ile-oxazolone; experiment: self-aminoacylation, catalytic enhancement (BIO) (fold over background); higher = more active; k-Seq, kA / k0A0; sequences stand for … in GGGAAUGGAUCCACAUCUACGAAUUC…UUCACUGCAGACUUGACGAAGCUG
Procedure, shortened: (§1)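 Each biotinyl-aminoacyl-oxazolone, at 2–1250 μM, was incubated with mutagenized RNA pools (0.43 μM) carrying a 21-nt variable region. The 50 μL reactions contained HEPES/NaCl/KCl/MgCl2/CaCl2 buffer with 5% acetonitrile at pH 6.9–7.0 and ran for 90 minutes at room temperature. After streptavidin capture, RNA was measured by qPCR in triplicate and by Illumina sequencing, and catalytic enhancement was calculated as median kA over the uncatalyzed rate from a pseudo-first-order fit of per-sequence fraction reacted.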

[2] = test system: biotinyl-Phe-oxazolone; experiment: self-aminoacylation, catalytic enhancement (BFO) (fold over background); higher = more active; k-Seq, kA / k0A0; sequences stand for … in GGGAAUGGAUCCACAUCUACGAAUUC…UUCACUGCAGACUUGACGAAGCUG
Procedure, shortened: as §1

[3] = test system: biotinyl-Leu-oxazolone; experiment: self-aminoacylation, catalytic enhancement (BLO) (fold over background); higher = more active; k-Seq, kA / k0A0; sequences stand for … in GGGAAUGGAUCCACAUCUACGAAUUC…UUCACUGCAGACUUGACGAAGCUG
Procedure, shortened: as §1

[4] = test system: biotinyl-Met-oxazolone; experiment: self-aminoacylation, catalytic enhancement (BMO) (fold over background); higher = more active; k-Seq, kA / k0A0; sequences stand for … in GGGAAUGGAUCCACAUCUACGAAUUC…UUCACUGCAGACUUGACGAAGCUG
Procedure, shortened: as §1

[5] = test system: biotinyl-Trp-oxazolone; experiment: self-aminoacylation, catalytic enhancement (BWO) (fold over background); higher = more active; k-Seq, kA / k0A0; sequences stand for … in GGGAAUGGAUCCACAUCUACGAAUUC…UUCACUGCAGACUUGACGAAGCUG
Procedure, shortened: as §1

[6] = test system: biotinyl-Val-oxazolone; experiment: self-aminoacylation, catalytic enhancement (BVO) (fold over background); higher = more active; k-Seq, kA / k0A0; sequences stand for … in GGGAAUGGAUCCACAUCUACGAAUUC…UUCACUGCAGACUUGACGAAGCUG
Procedure, shortened: as §1

CCAGACUCCAAGCAAUCGGUC [Fam1B.1 aminoacylation ribozyme variant]
self-aminoacylation [1]: 1.22
self-aminoacylation [2]: 2.16
self-aminoacylation [3]: 1.23
self-aminoacylation [4]: 1.17
self-aminoacylation [5]: 1.48
self-aminoacylation [6]: 1.23

CCAGAGUUCAAGCAAUCGGUC [Fam1B.1 aminoacylation ribozyme variant]
self-aminoacylation [1]: 1.36
self-aminoacylation [2]: 1.42
self-aminoacylation [3]: 1.36
self-aminoacylation [4]: 1.21
self-aminoacylation [5]: 1.72
self-aminoacylation [6]: 1.2

CCAGUCUUCAAGCAAUCGGUC [Fam1B.1 aminoacylation ribozyme variant]
self-aminoacylation [1]: 1.67
self-aminoacylation [2]: 68.5
self-aminoacylation [3]: 2.8
self-aminoacylation [4]: 1.79
self-aminoacylation [5]: 38.6
self-aminoacylation [6]: 1.63

CCAUACUGCAAGCAAUCGGUC [Fam1B.1 aminoacylation ribozyme variant]
self-aminoacylation [1]: 1.14
self-aminoacylation [2]: 1.06
self-aminoacylation [3]: 0.996
self-aminoacylation [4]: 1.15
self-aminoacylation [5]: 0.938
self-aminoacylation [6]: 1.14

CCAUACUUCAAGCAAUAGGUC [Fam1B.1 aminoacylation ribozyme variant]
self-aminoacylation [1]: 0.72
self-aminoacylation [2]: 1.03
self-aminoacylation [3]: 0.597
self-aminoacylation [4]: 0.505
self-aminoacylation [5]: 0.513
self-aminoacylation [6]: 0.633

CCAUACUUCAAGCAAUCGAUC [Fam1B.1 aminoacylation ribozyme variant]
self-aminoacylation [1]: 0.666
self-aminoacylation [2]: 1.01
self-aminoacylation [3]: 0.489
self-aminoacylation [4]: 0.45
self-aminoacylation [5]: 0.638
self-aminoacylation [6]: 0.842

CCAUACUUCAAGCAAUCGGUA [Fam1B.1 aminoacylation ribozyme variant]
self-aminoacylation [1]: 1.33
self-aminoacylation [2]: 1.04
self-aminoacylation [3]: 1.1
self-aminoacylation [4]: 1.22
self-aminoacylation [5]: 1.1
self-aminoacylation [6]: 1.26

CCAUACUUCAAGCAAUCGGUC [Fam1B.1 aminoacylation ribozyme variant]
self-aminoacylation [1]: 1.07
self-aminoacylation [2]: 22.5
self-aminoacylation [3]: 1.14
self-aminoacylation [4]: 0.921
self-aminoacylation [5]: 10.1
self-aminoacylation [6]: 1.11

CCAUACUUCAAGUAAUCGGUC [Fam1B.1 aminoacylation ribozyme variant]
self-aminoacylation [1]: 0.914
self-aminoacylation [2]: 8.18
self-aminoacylation [3]: 1.07
self-aminoacylation [4]: 0.825
self-aminoacylation [5]: 5
self-aminoacylation [6]: 0.861

CCCCACUUCAAGCAAUCGAUC [Fam1B.1 aminoacylation ribozyme variant]
self-aminoacylation [1]: 0.768
self-aminoacylation [2]: 2.79
self-aminoacylation [3]: 0.67
self-aminoacylation [4]: 0.533
self-aminoacylation [5]: 1.27
self-aminoacylation [6]: 0.93

CCCCACUUCAAGCGAUCGGUC [Fam1B.1 aminoacylation ribozyme variant]
self-aminoacylation [1]: 1.69
self-aminoacylation [2]: 5.13
self-aminoacylation [3]: 1.68
self-aminoacylation [4]: 2.53
self-aminoacylation [5]: 4.88
self-aminoacylation [6]: 2.02

CCGAACUUCAAGCAAUCGGUC [Fam1B.1 aminoacylation ribozyme variant]
self-aminoacylation [1]: 1.26
self-aminoacylation [2]: 34.4
self-aminoacylation [3]: 1.68
self-aminoacylation [4]: 1.43
self-aminoacylation [5]: 20.6
self-aminoacylation [6]: 1.54

CCGCACUUAAAGCAAUCGGUC [Fam1B.1 aminoacylation ribozyme variant]
self-aminoacylation [1]: 1.13
self-aminoacylation [2]: 0.932
self-aminoacylation [3]: 1.05
self-aminoacylation [4]: 1.1
self-aminoacylation [5]: 1.15
self-aminoacylation [6]: 1.25

CCGCACUUCAAGCAAUGGGUC [Fam1B.1 aminoacylation ribozyme variant]
self-aminoacylation [1]: 0.918
self-aminoacylation [2]: 1.13
self-aminoacylation [3]: 1.04
self-aminoacylation [4]: 0.802
self-aminoacylation [5]: 1.08
self-aminoacylation [6]: 1.21

CCGCACUUCAAGGAAUCGGUC [Fam1B.1 aminoacylation ribozyme variant]
self-aminoacylation [1]: 1.45
self-aminoacylation [2]: 10.7
self-aminoacylation [3]: 1.44
self-aminoacylation [4]: 1.37
self-aminoacylation [5]: 10.8
self-aminoacylation [6]: 1.52

CCGCACUUCAAUCAAUCGGUC [Fam1B.1 aminoacylation ribozyme variant]
self-aminoacylation [1]: 1.27
self-aminoacylation [2]: 39.7
self-aminoacylation [3]: 2.03
self-aminoacylation [4]: 1.26
self-aminoacylation [5]: 28.7
self-aminoacylation [6]: 1.62

CCGCACUUCGAGCAAUCGGUC [Fam1B.1 aminoacylation ribozyme variant]
self-aminoacylation [1]: 1.22
self-aminoacylation [2]: 5.29
self-aminoacylation [3]: 1.46
self-aminoacylation [4]: 1.46
self-aminoacylation [5]: 2.26
self-aminoacylation [6]: 2.27

CCGCAGUUCAAGCAAUCGGUC [Fam1B.1 aminoacylation ribozyme variant]
self-aminoacylation [1]: 1.58
self-aminoacylation [2]: 5.75
self-aminoacylation [3]: 1.85
self-aminoacylation [4]: 1.96
self-aminoacylation [5]: 6.86
self-aminoacylation [6]: 1.82

CCGCUCUUCAAGCAAUCGGUC [Fam1B.1 aminoacylation ribozyme variant]
self-aminoacylation [1]: 1.42
self-aminoacylation [2]: 35.5
self-aminoacylation [3]: 1.92
self-aminoacylation [4]: 1.6
self-aminoacylation [5]: 26.3
self-aminoacylation [6]: 1.76

CCGUACUUCAAGCAAUCGGUC [Fam1B.1 aminoacylation ribozyme variant]
self-aminoacylation [1]: 1.16
self-aminoacylation [2]: 34.5
self-aminoacylation [3]: 1.42
self-aminoacylation [4]: 1.06
self-aminoacylation [5]: 18.4
self-aminoacylation [6]: 1.3

CCUCACCUCAAGCAAUCGGUC [Fam1B.1 aminoacylation ribozyme variant]
self-aminoacylation [1]: 1.02
self-aminoacylation [2]: 4.38
self-aminoacylation [3]: 0.963
self-aminoacylation [4]: 0.79
self-aminoacylation [5]: 2.12
self-aminoacylation [6]: 1.3

CCUCACUUCAAACAAUCGGUC [Fam1B.1 aminoacylation ribozyme variant]
self-aminoacylation [1]: 1.21
self-aminoacylation [2]: 93.7
self-aminoacylation [3]: 2.35
self-aminoacylation [4]: 1.51
self-aminoacylation [5]: 37.3
self-aminoacylation [6]: 1.25

CCUCACUUCAAGCAACCGGUC [Fam1B.1 aminoacylation ribozyme variant]
self-aminoacylation [1]: 0.978
self-aminoacylation [2]: 1.67
self-aminoacylation [3]: 0.806
self-aminoacylation [4]: 0.857
self-aminoacylation [5]: 1.29
self-aminoacylation [6]: 0.834

Source: the supplement of paper PMC9233669
